Here are results for one protein from FireProtDB (doi:10.1021/bi982931h).

For the data set the following is noted: Geobacillus stearothermophilus, 25 °C, Urea, CD, Sodium phosphate 10 mM, reversible: yes, whole UniProt chain shown.

B1: Large ribosomal subunit protein bL9 wild type, P02417 (protein)
chain: MKVIFLKDVKGKGKKGEIKNVADGYANNFLFKQGLAIEATPANLKALEAQKQKEQRQAAEELANAKKLKEQLEKLTVTIPAKAGEGGRLFGSITSKQIAESLQAQHGLKLDKRKIELADAIRALGYTNVPVKLHPEVTATLKVHVTEQK
B1: the unfolding free energy is, setting by setting: (pH 2.4, NaCl 750 mM) 2.9 kcal/mol; (pH 2.79, NaCl 100 mM) 2.3 kcal/mol; (pH 3.15, NaCl 750 mM) 3.1 kcal/mol; (pH 3.55, NaCl 100 mM) 3 kcal/mol; (pH 4.14, NaCl 750 mM) 4 kcal/mol; (pH 4.51, NaCl 100 mM) 3.5 kcal/mol. The unfolding free energy reads like this: (pH 5.25, NaCl 750 mM) 4.8 kcal/mol; (pH 5.99, NaCl 100 mM) 4.4 kcal/mol; (pH 6.56, NaCl 750 mM) 4.7 kcal/mol; (pH 6.98, NaCl 100 mM) 4.5 kcal/mol; (pH 7.26, NaCl 750 mM) 5.2 kcal/mol.
